Drawing on US20240383983A1 (ABL BIO, published 2024), this text covers MFI for three molecules.

The labels stand for the following.
T1: human B7-H4 expressed on cells (CHOK-1 B7-H4, SK-BR3, CAMA-1, MDA-MB-468, MX-1, OVCAR-3) (human, UniProt Q7Z7D3 25-282)
T1 construct: whole, on cells; also called B7-H4 expressed cell line; B7-H4 positive cancer cell lines
T1 sequence (looked up): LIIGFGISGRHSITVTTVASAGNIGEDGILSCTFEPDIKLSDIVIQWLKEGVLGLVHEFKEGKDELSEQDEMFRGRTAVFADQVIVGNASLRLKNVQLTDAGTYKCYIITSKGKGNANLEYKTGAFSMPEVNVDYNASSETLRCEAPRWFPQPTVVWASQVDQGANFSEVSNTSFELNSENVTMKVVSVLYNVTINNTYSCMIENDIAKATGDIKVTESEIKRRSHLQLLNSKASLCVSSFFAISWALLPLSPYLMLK

B1: 23B6C2 (mouse monoclonal anti-B7-H4 antibody) (antibody, V domains shown)
VH: QVTLKESGPGILQPSQTLSLTCSFSGFSLSTFGMGVGWIRQPSGKGLEWLAHIWWDDDKYYNSALKSRLTISKETSKNQIFLKIANVDTTDTATYYCVRKDYYGYRGFAYWGQGTLVTVSA
VL: QLVLTQSSSASFSLGASAKLTCTLSSQHTTYTIEWYQQQPLKPPKYVMELKKDGSHSTGDGIPDRFSGSSSGADRYLCISNIQPEDEAIYICGVGDTIKEQFVYVFGGGTKVTVL
notes: Mouse hybridoma antibody, detected with anti-mouse IgG Fc; also called 23B6C2 (from mouse)
B2: 16E3H3 (mouse monoclonal anti-B7-H4 antibody) (antibody, V domains shown)
VH: QIQLVHSGPELKKPGETVKISCKASGYPFTTYGMNWVKQAPGKGLKWMGWIDTYSGVPTYADDFKGRFAFSLETSASTAYLQINNLKNEDTATYFCARRSFWYFDVWGTGTTVTVSS
VL: DVVMTQTPLSLPVSLGDQASISCRSSQSLVHSNGNTYLHWYLQKPGQSPKLLIYKVSNRFSGVPDRFSGSGSGTDFTLKIRRVEAEDLGVYFCSQSTHVPWTFGGGTKLEIK
notes: Mouse hybridoma antibody, detected with anti-mouse IgG Fc; also called 16E3H3 (from mouse); 16E3H3 clone
B3: 73B4F10 (mouse monoclonal anti-B7-H4 antibody) (antibody, V domains shown)
VH: QVQLQQPGTELVKPGASVKLSCKASGYTFTSYWMHWVKQRPGQGLERIGHINPSNGGTNYNEKFKKKATLTVDKSSSTAYMQLSSLTSEDSAVYYCARSEFYYGTVFAYWGQGTLVTVSA
VL: DVLMTQTPLSLPVSLGDQASISCRSSQSIVHGNGNTYLEWYLQKPGQSPKLLIYKVSNRFSGVPDRFSGSGSGTDFTLKISRVEAEDLGVYYCFQGSHDPPTFGGGTKLEIK
notes: Mouse hybridoma antibody, detected with anti-mouse IgG Fc; also called 73B4F10 (from mouse)

For one test, the target named is T1, human B7-H4 expressed on cells (CHOK-1 …). The experiment in a line: FACS on SK-BR3 cells, 100 nM antibody, FITC anti-mouse IgG Fc detection (FL1-H). The protocol: (§1) To evaluate the antigen binding property, the mouse antibody candidates generated according to Preparation Example 1-1 were analyzed for their bindings to B7-H4 expressed cells (SK-BR3, CAMA-1 and MDA-MB-468) or B7-H4 negative expressed cell (PANC-1). Briefly, each cells were treated with the 100 nM of indicated antibodies at 4° C. for 1 hr. After washing by FACS buffer (1% BSA in PBS), Cells were incubated with the FITC anti-mouse IgG Fc antibody at 4° C. for 1 hr and then subjected to FACS analysis. As shown FIG. 1, anti-B7-H4 mouse antibodies bound to B7-H4 expressed SK-BR3, CAMA-1 and MDA-MB-468 cell lines but not B7-H4 negative PANC-1. […] Based on the ranking results, 16E3H3 clone was selected for humanization.
Consider B1, for which the MFI is 7.85.

As for B2, the MFI amounted to 25.3.

B3 had an MFI of 5.95.

For a further test the target is unchanged. The test is described as follows: FACS on CAMA-1 cells, 100 nM antibody, FITC anti-mouse IgG Fc detection (FL1-H). The protocol:
as §1
On to B1, for which the MFI came to 47.4.

Regarding B2, the MFI amounted to 463.

B3 had an MFI of 29.

Another test shares this target. The test is described as follows: FACS on MDA-MB-468 cells, 100 nM antibody, FITC anti-mouse IgG Fc detection (FL1-H). The protocol:
as §1
As for B1, the MFI was found to be 22.

In turn, B2 had an MFI of 77.6.

Take B3: the MFI was 20.1.
